Patent US20200062863A1 (CSL BEHRING, published 2020)
Where “and” joins values, the source holds several entries; their conditions need not be identical. Equal entries are not always repeated.

Key:
human Factor XII = biological target: T1, human Factor XII (human, UniProt P00748 20-615); experiment: SPR (Biacore), purified IgG captured on anti-mouse Fc antibody, FXII 0-500 nM, 1:1 fit, 25 C
T1 construct: Zymogen bought from Enzyme Research Laboratories; also called FXII
T1 sequence: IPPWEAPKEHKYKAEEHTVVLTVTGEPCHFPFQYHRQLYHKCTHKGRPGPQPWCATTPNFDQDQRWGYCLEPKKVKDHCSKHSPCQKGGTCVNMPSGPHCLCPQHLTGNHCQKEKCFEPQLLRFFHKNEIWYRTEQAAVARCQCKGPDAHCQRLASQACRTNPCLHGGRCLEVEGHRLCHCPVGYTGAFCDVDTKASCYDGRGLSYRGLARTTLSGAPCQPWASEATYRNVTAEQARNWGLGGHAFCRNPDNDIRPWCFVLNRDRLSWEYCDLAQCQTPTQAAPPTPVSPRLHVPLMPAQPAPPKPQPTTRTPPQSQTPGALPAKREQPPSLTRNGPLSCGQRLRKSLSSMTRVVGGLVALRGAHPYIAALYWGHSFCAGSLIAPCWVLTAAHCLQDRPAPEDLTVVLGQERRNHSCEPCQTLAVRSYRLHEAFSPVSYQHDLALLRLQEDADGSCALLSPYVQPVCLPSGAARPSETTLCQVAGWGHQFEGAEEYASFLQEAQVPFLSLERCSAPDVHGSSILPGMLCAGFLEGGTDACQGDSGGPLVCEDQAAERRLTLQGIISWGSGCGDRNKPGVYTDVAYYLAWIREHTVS

human Factor XIIa-alpha = biological target: T2, human Factor XIIa-alpha (human, UniProt P00748 20-615); experiment: cell-based or functional assay
T2 sequence: T1 sequence

human FXIIa = biological target: T3, human FXIIa (human, UniProt P00748 20-615, limits assumed)
T3 sequence: T1 sequence

human Factor XIIa-beta = biological target: T4, human Factor XIIa-beta (human, UniProt P00748 354-615, limits assumed); experiment: SPR (Biacore), purified IgG captured on anti-mouse Fc antibody, FXIIa beta 0-40 nM, 1:1 fit, 25 C
T4 construct: Bought from Enzyme Research Laboratories; also called FXIIa beta; FXIIa-beta
T4 sequence: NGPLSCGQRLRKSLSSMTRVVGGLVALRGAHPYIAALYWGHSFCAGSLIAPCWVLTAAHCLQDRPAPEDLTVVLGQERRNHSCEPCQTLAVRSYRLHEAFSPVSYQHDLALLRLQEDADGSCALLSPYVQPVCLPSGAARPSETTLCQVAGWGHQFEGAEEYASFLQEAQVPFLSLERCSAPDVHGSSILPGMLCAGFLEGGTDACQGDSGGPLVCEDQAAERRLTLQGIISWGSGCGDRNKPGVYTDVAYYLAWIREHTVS

- Kd (human Factor XII): 0.69 nM
- % Inhibition, ratio FXIIa-alpha:Antibody 1:0.1 (human Factor XIIa-alpha): 21.6%
- % Inhibition, ratio FXIIa-alpha:Antibody 1:0.2 (human Factor XIIa-alpha): 37.7%
- % Inhibition, ratio FXIIa-alpha:Antibody 1:0.5 (human Factor XIIa-alpha): 76.6%
- % Inhibition, ratio FXIIa-alpha:Antibody 1:1 (human Factor XIIa-alpha): 92.7%
- % Inhibition, ratio FXIIa-alpha:Antibody 1:2 (human Factor XIIa-alpha): 96.9%
- % Inhibition, ratio FXIIa-alpha:Antibody 1:5 (human Factor XIIa-alpha): 100%
- % Inhibition, ratio FXIIa-alpha:Antibody 1:10 (human Factor XIIa-alpha): 100%
- m3 (parameter of the curve fit, printed in the legend box; x axis Ab in nM) of the inhibition of FXIIa amidolytic activity, OD405 (human FXIIa): 12.9 and 13.5
- Kd (human Factor XIIa-beta): 0.76 nM
Substance: Anti-human FXII antibody (OT-2)
